Assay results as given in US8633250B2, “Cell repair and regeneration by suramin and related polysulfonated napthylureas” (MUSC Foundation for Research Development, priority 2006, dated 2014).

Tests used:
Format in all cases: cell-based, rabbit
[1] = system: renal proximal tubule cells (RPTC); test: RPTC outgrowth from plated renal proximal tubules (photographs); details: after 24 hr exposed for 24 hr, 50 μM suramin, 10 ng/ml EGF or suramin+EGF
Procedure: (§1) Isolation and culture of renal proximal tubules: Isolation and culture of renal proximal tubules were performed as described previously (Rodeheaver et al., 1990; Nowak and Schnellmann, 1995; Nowak and Schnellmann, 1996). Female New Zealand White rabbits (1.5-2.5 kg) were purchased from Myrtle's Rabbitry (Thompson Station, Tenn.). RPTC were isolated using the iron oxide perfusion method and grown in 6-well tissue culture dishes under improved conditions. The culture medium was an 1:1 mixture of DMEM/Ham's F-12 (without glucose, phenol red, or sodium pyruvate) supplemented with 15 mM HEPES buffer, 2.5 mM L-glutamine, 1 μM pyridoxine HCl, 15 mM sodium bicarbonate, and 6 mM lactate. Hydrocortisone (50 μM), selenium (5 ng/ml), human transferrin (5 μg/ml) bovine insulin (10 nM) and L-ascorbic acid-2-phosphate (50 μM) were added daily to fresh culture medium.
(§2) Isolated tubules were plated at 1 mg protein/well in a 6-well plate. On day 2, RPTC were incubated in the presence and absence of various pharmacological inhibitors for different time periods as indicated in the figure legends. For some experiments, suramin was added to RPTC on day 3 and then incubated for 24 hr in the presence or absence of various inhibitors before samples were taken.

[2] = system: renal proximal tubule cells (RPTC); test: Cell cycle analysis by flow cytometry: number of RPTC in S-phase; details: 24 hr treatment, four days following plating; suramin 50 μM, EGF 10 ng/ml; untreated approximately 20%
Procedure: as §1
Isolated tubules were plated at 1 mg protein/well in a 6-well plate. On day 2, RPTC were incubated in the presence and absence of various pharmacological inhibitors for different time periods as indicated in the figure legends. […]
Cell cycle analysis: Cell cycle phase was determined using flow cytometry as previously described (Zhuang et al., 2004). Cells were harvested, stained with propidium iodide and the number of cells in S-phase of cell cycle determined.

[3] = system: renal proximal tubule cells (RPTC); test: RPTC scattering, fibroblast-like morphology and lamellipodia (bright field, phalloidin staining); details: 50 μM suramin or 10 ng/ml EGF, 24 hr, phalloidin staining
Procedure: as §1, §2
Immunocytochemistry: After various treatments, RPTC were fixed with 10% buffered formalin, washed, permeabilized, and blocked with BSA. […]

EGF receptor = test: Immunoblot of EGF receptor phosphorylation (Tyr1068) in RPTC; details: 50 μM suramin, 10 ng/ml EGF or both for 10 min
Procedure: Preparation of cell lysates and immunoblot analysis: After different treatments, RPTC were washed twice with PBS and harvested in lysis buffer (0.25 M Tris-HCl, pH 6.8, 4% SDS, 10% glycerol, 1 mg/ml bromophenol blue, and 0.5% 2-mercaptoethanol). Cells were disrupted by sonication for 15 seconds and lysates stored at −20 °C. Equal amounts of cellular protein lysate were separated on 10% polyacrylamide gels and transferred to nitrocellulose membranes. After treatment with 5% skim milk at 4 °C overnight, membranes were incubated with various antibodies for 1 hr, and then incubated with an appropriate horseradish-peroxidase conjugated secondary antibody (Amersham, Piscataway, N.J.). Bound antibodies were visualized following chemiluminescence detection on autoradiographic film.
To determine whether suramin caused EGF receptor activation, we performed immunoblot analysis using an antibody against phosphorylated tyrosine 1068 of the EGF receptor. Total EGF receptor content was measured using immunoblot analysis and an antibody that recognizes the EGF receptor independent of its phosphorylation state to control for gel loading. […] Thus, suramin induced RPTC proliferation and scattering is not through the EGF receptor.

EGF receptor phosphorylation (tyrosine 1068) (EGF receptor): did observe phosphorylated EGF receptor
B1: EGF: Human recombinant EGF (epidermal growth factor) from R & D systems (protein, UniProt P01133 23-1207, looked up)
Pro-epidermal growth factor: PQHWSCPEGTLAGNGNSTCVGPAPFLIFSHGNSIFRIDTEGTNYEQLVVDAGVSVIMDFHYNEKRIYWVDLERQLLQRVFLNGSRQERVCNIEKNVSGMAINWINEEVIWSNQQEGIITVTDMKGNNSHILLSALKYPANVAVDPVERFIFWSSEVAGSLYRADLDGVGVKALLETSEKITAVSLDVLDKRLFWIQYNREGSNSLICSCDYDGGSVHISKHPTQHNLFAMSLFGDRIFYSTWKMKTIWIANKHTGKDMVRINLHSSFVPLGELKVVHPLAQPKAEDDTWEPEQKLCKLRKGNCSSTVCGQDLQSHLCMCAEGYALSRDRKYCEDVNECAFWNHGCTLGCKNTPGSYYCTCPVGFVLLPDGKRCHQLVSCPRNVSECSHDCVLTSEGPLCFCPEGSVLERDGKTCSGCSSPDNGGCSQLCVPLSPVSWECDCFPGYDLQLDEKSCAASGPQPFLLFANSQDIRHMHFDGTDYGTLLSQQMGMVYALDHDPVENKIYFAHTALKWIERANMDGSQRERLIEEGVDVPEGLAVDWIGRRFYWTDRGKSLIGRSDLNGKRSKIITKENISQPRGIAVHPMAKRLFWTDTGINPRIESSSLQGLGRLVIASSDLIWPSGITIDFLTDKLYWCDAKQSVIEMANLDGSKRRRLTQNDVGHPFAVAVFEDYVWFSDWAMPSVMRVNKRTGKDRVRLQGSMLKPSSLVVVHPLAKPGADPCLYQNGGCEHICKKRLGTAWCSCREGFMKASDGKTCLALDGHQLLAGGEVDLKNQVTPLDILSKTRVSEDNITESQHMLVAEIMVSDQDDCAPVGCSMYARCISEGEDATCQCLKGFAGDGKLCSDIDECEMGVPVCPPASSKCINTEGGYVCRCSEGYQGDGIHCLDIDECQLGEHSCGENASCTNTEGGYTCMCAGRLSEPGLICPDSTPPPHLREDDHHYSVRNSDSECPLSHDGYCLHDGVCMYIEALDKYACNCVVGYIGERCQYRDLKWWELRHAGHGQQQKVIVVAVCVVVLVMLLLLSLWGAHYYRTQKLLSKNPKNPYEESSRDVRSRRPADTEDGMSSCPQPWFVVIKEHQDLKNGGQPVAGEDGQAADGSMQPTSWRQEPQLCGMGTEQGCWIPVSSDKGSCPQVMERSFHMPSYGTQTLEGGVEKPHSLLSANPLWQQRALDPPHQMELTQ
modifications: Pro-epidermal growth factor
notes: Human recombinant EGF (epidermal growth factor) from R & D systems
RPTC outgrowth [1]: promoted RPTC outgrowth
RPTC in S-phase [2]: 32%
formation of lamellipodia and intercellular contacts [3]: increased the formation of lamellipodia and decreased intercellular contacts
